Residue numbers refer to the chain shown, from its start.
T1: biotinylated cynomolgus GDF-15 (cynomolgus, UniProt G7PWZ3 197-308, biotinylated, sites not stated)
T1 construct: also called Cyno GDF-15
T1 sequence: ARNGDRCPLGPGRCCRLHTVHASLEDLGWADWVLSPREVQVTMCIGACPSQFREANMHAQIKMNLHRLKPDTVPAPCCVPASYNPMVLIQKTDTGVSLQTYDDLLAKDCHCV

T2: biotinylated human H202D GDF-15 variant (human, UniProt Q99988 197-308, biotinylated, sites not stated)
T2 construct: also called Human GDF-15 H202D
T2 chain: T1 sequence with R6D, H21R, E54A, M63T, N64S, V112I

T3: mature human GDF-15 (human, UniProt Q99988 197-308)
T3 construct: Homodimer; also called hGDF-15; recombinant hu-GDF15
T3 sequence: T1 sequence with R6H, H21R, E54A, M63T, N64S, V112I

T4: mouse GDF-15 (mouse, UniProt Q9Z0J7 189-303)
T4 construct: also called mGDF-15
T4 sequence: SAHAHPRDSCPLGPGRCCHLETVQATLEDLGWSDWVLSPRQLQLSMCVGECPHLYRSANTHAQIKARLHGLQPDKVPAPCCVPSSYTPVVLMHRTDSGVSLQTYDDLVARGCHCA

T5: human BMP7 (R&D Systems 354-BP/CF) (human, UniProt P18075 293-431)
T5 construct: Bought protein, adsorbed on the ELISA plate
T5 sequence (looked up): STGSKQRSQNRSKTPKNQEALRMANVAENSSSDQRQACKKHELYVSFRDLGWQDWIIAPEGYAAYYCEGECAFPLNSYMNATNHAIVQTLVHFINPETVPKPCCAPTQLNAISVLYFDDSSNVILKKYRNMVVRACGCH

B1: AB1170002 (antibody, V domains shown)
VH: QVTLKESGPGILQPSQTLSLTCSFSGFSLSTYGMGVGWIRQPSGKGLEWLANIWWNDDKYYNSALKSRLTISKDTSNNQVFLKISSVDTADTVTYYCAQVGYDWFAYWGQGTLVTVSS
VL: EIVLTQSPALMAASPGEKVTITCSVSSSISSSNLHWYQQKSETSPKPWIYGTSNLASGVPVRFSGSGSGTSYSLTISSMEAEDAATYYCQQCSSYPLTFGAGTKLELK
B2: AB1170242 (antibody, IgG1, V domains shown)
VH: QVQLQESGPGLLKPSQTLSLTCTVSGFSLSTYGMGVGWIRQPAGKGLEWLANIWWNDDKYYNSALKSRLTISKDTSKNQVSLKLSSVTAADTAVYYCAQEVYGWFAYWGQGTLVTVSS
VL: DIQMTQSPSTLSASVGDRVTITCKASQNVGTNVAWYQQKPGQPPKALIYSASYRYSGVPDRFSGSGSGTDFTLTISSLQAEDVAVYYCQQYNSYPLTFGQGTKLEIK
notes: Humanized IgG1 TM; not shown: human immunoglobulin kappa light chain constant domain
B3: AB1170249 (antibody, IgG1, V domains shown)
VH: B2 VH with A43L, E100M, V101A, G103S
VL: B2 VL with T10F, V29M, G30D, L96F
notes: as for B2
B4: AB1170244 (antibody, IgG1, V domains shown)
VH: EVQLVESGGGLVKPGGSLRLSCAASGFTFSSYAMSWVRQAPGKGLEWVAYISSGGDNIYYADTVKGRFTISRDNSKNTLYLQMNSLKTEDTAVYYCTRALVENAYFDYWGQGTTVTVSS
VL: DSVLTQSPDSLAVSLGERATINCRASKSVSTSTYSYMHWYQQKPGQPPKLLIKYASYLESGVPDRFSGSGSGTDFTLKISRVEAEDVGVYYCQHSREFPWTFGGGTKVEIK
notes: as for B2
B5: AB1170245 (antibody, IgG1, V domains shown)
VH: B4 VH with N57Y, E102D
VL: DIVLTQSPDSLAVSLGERATINCRASKSVSTSSYSYMHWYQQKPGQPPKLLIKYASYLEFGVPSRFSGSGSGTDFTLTISSLQPEDVATYYCQHSREFPWTFGGGTKVEIK
notes: as for B2
B6: AB1170241 (antibody, IgG1, V domains shown)
VH: QVQLVQSGSELKKPGASVKVSCKASGYTFTDYNMDWIRQSPGKGLEWIGDINPNQGGTFYNQKFKDRATLTVDKSTSTAYMELRSLRSDDTAVYYCAREEKLYFGLMDYWGQGTTVTVSS
VL: DIQMTQSPSSLSASVGDRVTITCRASENIYSYLAWYQQKPGKAPKLLVYNAKTLAEGVPSRFSGSGSGIDFTLTISSLQPEDFATYYCQHQYGSPPTFGQGTKLEIK
notes: Humanized IgG1 TM; Made from AB1170243 by changing NNG to NQG in heavy chain CDR2; not shown: human immunoglobulin kappa light chain constant domain
B7: AB1170248 (antibody, IgG1, V domains shown)
VH: QVQLVQSGSELKKPGASVKVSCKASGYTFTDYNMDWVRQAPGKGLEWIGDINPYNGITIYNQKFKGRATLTVDKSTSTAYMELRSLRSDDTAVYYCAREEKLGTSFDYWGQGTTVTVSS
VL: B6 VL with Y32N, N50A, K52T, T53N, E56D, I69T, Q91F, S94T, P96W
notes: as for B2
B8: AB1170243 (antibody, IgG1, V domains shown)
VH: B6 VH with Q55N
VL: B6 VL
notes: Humanized IgG1 TM; also called human anti-human GDF-15 IgG; not shown: human immunoglobulin kappa light chain constant domain
B9: AB1170247 (antibody, IgG1, V domains shown)
VH: QVQLVQSGSELKKPGASVKVSCKASGYTFTSYDINWVRQAPGQGLEWIGWIYPRDGISKYNEKFKGRATLTVDTSASTAYMELSSLRSEDTAVYYCAGTYDPAYFDYWGQGTTVTVSS
VL: EIVLTQSPATLSVSPGERATLSCRASQSISYYLHWYQQKPGQAPRLLIKYASQSISGVPDRFSGSGSGTDFTLKISRVEAEDFGVYYCQQSNSWPYTFGGGTKVEIK
notes: as for B2
B10: AB1170246 (antibody, IgG1, V domains shown)
VH: QVQLQESGPGLLKPSQTLSLTCTVSGFSLITSGLGVSWIRQPAGKGLEWLAHIYWDDDKRYNPSLKSRLTISKDTSKNQVSLKLSSVTAADTAVYYCARGGYDGYYDYWGQGTTVTVSS
VL: DVVMTQSPLSLPVTLGQPASISCRSSQSIVHSNGNTNLEWYLQKPGQSPQLLIYKVSNRLSGVPDRFSGSGSGTDFTLKISRVEAEDVGVYYCFQGSHVRTFGQGTKLEIK
notes: as for B2

These binders were tested against T1, biotinylated cynomolgus GDF-15 (assay: HTRF binding assay, biotinylated antigen, titration of antibody).
Source text: (§1) Supernatants generated from the immunizations with human GDF-15 and purified IgGs were screened to identify IgGs with specific binding to human, cynomolgus, or mouse GDF-15. The HTRF (Homogeneous Time Resolved Fluorescence) assay is based on detection of a measurable FRET signal upon binding of a titration of test antibody to biotinylated human H202D GDF-15 variant, cynomolgus GDF-15 and mouse GDF-15. Europium cryptate (EuK) labelled Streptavidin and anti-human IgG XL665 (Cis Bio) were used as secondary detection reagents serving as energy donor and acceptor respectively. In the absence of test antibody binding, there is no detectable FRET fluorescence. When test antibody binds to GDF-15, the resulting physical proximity between the secondary reagent donor/acceptor pair results in FRET. FRET was measured ratiometrically [665 nm (acceptor)/620 nm (donor)] on an Envision plate reader, and data plotted using PRISM 6® software (Graphpad).

Row | binding result | Binder
1 | binds | B1

Biological target: T2, biotinylated human H202D GDF-15 variant
Experiment: as above
Source text: as §1

Row | binding result | Binder
2 | binds | B1

The binders below were run against T3, mature human GDF-15 (assay: HTRF epitope competition; competitor DyLight 650 labelled Antibody A; Europium labelled human GDF-15).
Source text: Antibodies from the immunizations with human GDF-15, in the form of crude supernatants from the immunization or in the form of purified IgGs, were chosen on the basis that they bind and compete with an epitope recognized by a control anti-GDF-15 antibody “Antibody A”. A biochemical epitope competition format was applied using an HTRF epitope competition assay that measured the binding of DyLight 650 labelled Antibody A to Europium labelled human GDF-15 (Prospec). In the absence of Antibody A binding, there is no detectable FRET fluorescence. When Antibody A binds to GDF-15, the resulting physical proximity between the secondary reagent donor/acceptor pair results in FRET. Competition with an antibody that recognizes the same or similar epitope will result in a dose dependent reduction of the FRET signal. FRET was measured ratiometrically [665 nm (acceptor)/620 nm (donor)] on an Envision plate reader, and IC₅₀ values were determined by curve fitting the data to a four parameter logistic equation using PRISM 6® software (Graphpad).

Row | IC50 [nM] | Binder
3 | 0.288 | B2
4 | 0.406 | B3
5 | 1.17 | B4
6 | 2.23 | B5
7 | 0.212 | B6
8 | 1.58 | B7
9 | 0.155 | B8
10 | 11.3 | B9
11 | 6.1 | B1
12 | 4.99 | B10

The binders below were run against T4, mouse GDF-15 (assay: HTRF binding assay, biotinylated mouse GDF-15).
Source text: as §1

Row | binding result | Binder
13 | no binding | B1

Each binder was assayed against T5, human BMP7 (R&D Systems 354-BP/CF) (assay: antigen presentation ELISA: human BMP7 adsorbed on a Nunc Maxisorp plate, titration of IgG, anti-human IgG-HRP, TMB, absorbance at 450 nm).
Procedure: (§2) Purified humanized IgGs were screened for binding to human GDF-15 over two further members of the same family, TGFβ1 (R&D Systems 240-B) and BMP7 (R&D Systems 354-BP/CF), using a standard antigen presentation ELISA. Human GDF-15, human TGFβ1 or human BMP7 were adsorbed onto a Nunc Maxisorp™ plate. After removal of excess unbound antigen, a titration of test IgG was added to the plate. After a 1-hour incubation, the unbound IgG was removed. The extent of IgG binding was determined by addition of an anti-human IgG antibody conjugated to the horseradish peroxidase (HRP) enzyme and measuring the optical absorbance at 450 nm of the product of its reaction with the substrate TMB.

Row | binding result | Binder
14 | no binding (tested: 5 µg/mL) | B2
15 | no binding (tested: 5 µg/mL) | B3
16 | no binding (tested: 5 µg/mL) | B4
17 | no binding (tested: 5 µg/mL) | B5
18 | no binding (tested: 5 µg/mL) | B6
19 | no binding (tested: 5 µg/mL) | B7
20 | no binding (tested: 5 µg/mL) | B8
21 | no binding (tested: 5 µg/mL) | B9
22 | no binding (tested: 5 µg/mL) | B10

The binders below were run against T6, human TGFβ1 (R&D Systems 240-B) (human, UniProt P01137 279-390) (assay: antigen presentation ELISA: human TGFβ1 adsorbed on a Nunc Maxisorp plate, titration of IgG, anti-human IgG-HRP, TMB, absorbance at 450 nm).
T6 construct: Bought protein, adsorbed on the ELISA plate
T6 sequence (P01137 279-390 limits assumed): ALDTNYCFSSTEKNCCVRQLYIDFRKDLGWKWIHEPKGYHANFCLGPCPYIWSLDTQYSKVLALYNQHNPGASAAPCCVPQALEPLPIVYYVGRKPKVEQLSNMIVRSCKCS
Procedure: as §2

Row | binding result | Binder
23 | no binding (tested: 5 µg/mL) | B2
24 | no binding (tested: 5 µg/mL) | B3
25 | no binding (tested: 5 µg/mL) | B4
26 | no binding (tested: 5 µg/mL) | B5
27 | no binding (tested: 5 µg/mL) | B6
28 | no binding (tested: 5 µg/mL) | B7
29 | no binding (tested: 5 µg/mL) | B8
30 | no binding (tested: 5 µg/mL) | B9
31 | no binding (tested: 5 µg/mL) | B10

From patent US20220281965A1 (AstraZeneca / MedImmune, published 2022)
